Assay results published in patent US20260008830A1 (FUNDACI CENTRE DE REGULACI GEN MICA, published 2026).

Tests used:
Test in all cases: cell-based or functional assay
[1] = target: IL-2 receptor on IL-2 reporter HEK blue cells (Human IL-2 & IL-15 Reporter Cells, hkb-il2bg)
[2] = target: T1, IL-22 receptors R1 and R2 on HEK-Blue IL-22 reporter cells (UniProt Q8N6P7 16-574; Q08334 20-325, limits assumed)
T1 sequence (looked up) 1: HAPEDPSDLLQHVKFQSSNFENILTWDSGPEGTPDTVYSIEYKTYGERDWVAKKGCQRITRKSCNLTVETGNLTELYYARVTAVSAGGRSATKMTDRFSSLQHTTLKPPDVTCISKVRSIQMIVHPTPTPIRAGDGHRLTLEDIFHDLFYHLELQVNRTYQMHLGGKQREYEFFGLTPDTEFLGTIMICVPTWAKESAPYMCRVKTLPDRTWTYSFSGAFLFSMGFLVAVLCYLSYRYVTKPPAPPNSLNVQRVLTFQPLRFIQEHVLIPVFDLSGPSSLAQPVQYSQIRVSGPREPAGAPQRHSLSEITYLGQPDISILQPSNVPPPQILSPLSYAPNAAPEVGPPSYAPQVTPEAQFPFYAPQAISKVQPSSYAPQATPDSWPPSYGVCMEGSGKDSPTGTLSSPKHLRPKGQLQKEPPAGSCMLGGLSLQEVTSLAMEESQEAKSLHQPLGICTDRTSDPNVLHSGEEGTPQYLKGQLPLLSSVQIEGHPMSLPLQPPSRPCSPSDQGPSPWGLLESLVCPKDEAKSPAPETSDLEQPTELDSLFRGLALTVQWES
T1 sequence (looked up) 2: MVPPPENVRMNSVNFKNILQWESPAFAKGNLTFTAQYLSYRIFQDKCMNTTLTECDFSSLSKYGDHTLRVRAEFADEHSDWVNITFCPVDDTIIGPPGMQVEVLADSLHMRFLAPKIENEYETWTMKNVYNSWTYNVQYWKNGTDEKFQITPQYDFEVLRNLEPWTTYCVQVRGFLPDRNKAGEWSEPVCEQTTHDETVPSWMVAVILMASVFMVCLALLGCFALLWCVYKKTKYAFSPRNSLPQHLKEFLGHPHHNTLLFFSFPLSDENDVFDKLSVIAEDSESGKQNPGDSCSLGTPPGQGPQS

[3] = target: T2, IL-10 receptors R1 and R2 on HEK-Blue IL-10 reporter cells (UniProt Q13651 22-578; Q08334 20-325, limits assumed)
T2 sequence (looked up) 1: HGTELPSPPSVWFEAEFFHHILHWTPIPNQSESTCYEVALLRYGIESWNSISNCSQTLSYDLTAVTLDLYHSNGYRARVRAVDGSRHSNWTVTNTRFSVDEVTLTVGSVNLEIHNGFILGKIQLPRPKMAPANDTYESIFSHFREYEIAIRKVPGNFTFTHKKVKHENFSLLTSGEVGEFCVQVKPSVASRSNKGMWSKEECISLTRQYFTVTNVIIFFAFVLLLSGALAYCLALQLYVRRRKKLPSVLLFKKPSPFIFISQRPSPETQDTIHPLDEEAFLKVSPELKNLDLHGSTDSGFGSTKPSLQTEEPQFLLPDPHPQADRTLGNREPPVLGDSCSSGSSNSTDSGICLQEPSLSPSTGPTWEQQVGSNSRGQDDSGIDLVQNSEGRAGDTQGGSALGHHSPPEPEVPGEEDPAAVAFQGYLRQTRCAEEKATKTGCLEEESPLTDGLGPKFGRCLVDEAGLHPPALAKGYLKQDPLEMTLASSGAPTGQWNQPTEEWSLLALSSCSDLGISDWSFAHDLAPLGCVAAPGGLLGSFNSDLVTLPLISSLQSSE
T2 sequence (looked up) 2: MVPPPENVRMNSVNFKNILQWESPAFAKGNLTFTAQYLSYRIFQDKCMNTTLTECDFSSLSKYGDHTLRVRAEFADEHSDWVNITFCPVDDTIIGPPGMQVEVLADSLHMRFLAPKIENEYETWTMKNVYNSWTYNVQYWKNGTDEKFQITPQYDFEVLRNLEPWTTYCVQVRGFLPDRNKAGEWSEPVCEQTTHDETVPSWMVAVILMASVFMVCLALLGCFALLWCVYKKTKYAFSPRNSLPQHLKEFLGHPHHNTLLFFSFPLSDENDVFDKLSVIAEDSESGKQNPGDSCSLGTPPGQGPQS

[4] = target: T3, IFN-gamma receptor on HEK-Dual cells (Human IFN-γ SEAP/Luciferase Reporter Cells, hkd-ifng)
T3 sequence (P15260 whole entry, looked up): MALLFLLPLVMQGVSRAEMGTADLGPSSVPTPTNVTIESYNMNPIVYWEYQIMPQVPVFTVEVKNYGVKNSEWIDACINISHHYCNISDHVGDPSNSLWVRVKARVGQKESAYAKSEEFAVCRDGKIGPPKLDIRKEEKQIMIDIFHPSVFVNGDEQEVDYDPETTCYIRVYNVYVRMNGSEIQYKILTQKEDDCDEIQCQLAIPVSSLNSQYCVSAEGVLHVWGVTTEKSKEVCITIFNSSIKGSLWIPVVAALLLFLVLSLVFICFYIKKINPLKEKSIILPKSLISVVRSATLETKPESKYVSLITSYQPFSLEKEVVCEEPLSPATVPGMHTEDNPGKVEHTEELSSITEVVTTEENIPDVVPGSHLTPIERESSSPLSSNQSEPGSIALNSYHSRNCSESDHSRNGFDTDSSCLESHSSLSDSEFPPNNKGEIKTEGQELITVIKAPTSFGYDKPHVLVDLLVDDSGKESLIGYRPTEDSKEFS
T3 sequence (P38484 whole entry, looked up): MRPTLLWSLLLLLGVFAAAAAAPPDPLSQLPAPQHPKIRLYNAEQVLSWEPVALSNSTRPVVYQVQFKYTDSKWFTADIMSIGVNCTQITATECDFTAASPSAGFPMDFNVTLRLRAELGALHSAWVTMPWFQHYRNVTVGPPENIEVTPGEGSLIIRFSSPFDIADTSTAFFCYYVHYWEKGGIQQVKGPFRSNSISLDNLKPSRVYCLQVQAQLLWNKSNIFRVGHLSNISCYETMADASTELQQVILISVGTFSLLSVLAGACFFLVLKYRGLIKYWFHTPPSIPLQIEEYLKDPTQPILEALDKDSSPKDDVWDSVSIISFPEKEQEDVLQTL

IL-2 receptor on IL-2 reporter HEK blue cells (Human IL-2 & IL-15 Reporter Cells, hkb-il2bg), sequence (P14784 whole entry, chain 1 of 2): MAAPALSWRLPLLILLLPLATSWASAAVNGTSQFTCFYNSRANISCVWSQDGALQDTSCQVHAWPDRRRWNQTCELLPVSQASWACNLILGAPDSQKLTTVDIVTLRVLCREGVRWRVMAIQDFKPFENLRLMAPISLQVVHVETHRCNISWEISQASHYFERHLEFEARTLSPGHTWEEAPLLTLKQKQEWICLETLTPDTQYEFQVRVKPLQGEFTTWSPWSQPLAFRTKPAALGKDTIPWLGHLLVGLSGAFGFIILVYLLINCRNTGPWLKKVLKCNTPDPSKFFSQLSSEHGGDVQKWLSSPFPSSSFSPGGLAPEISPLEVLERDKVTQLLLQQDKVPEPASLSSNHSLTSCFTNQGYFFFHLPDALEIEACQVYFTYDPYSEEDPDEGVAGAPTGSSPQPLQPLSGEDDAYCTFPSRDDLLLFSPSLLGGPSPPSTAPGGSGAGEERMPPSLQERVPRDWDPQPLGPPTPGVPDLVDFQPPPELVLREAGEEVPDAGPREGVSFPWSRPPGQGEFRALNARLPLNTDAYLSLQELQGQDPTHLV
IL-2 receptor on IL-2 reporter HEK blue cells (Human IL-2 & IL-15 Reporter Cells, hkb-il2bg), sequence (P31785 whole entry, chain 2 of 2, further chain): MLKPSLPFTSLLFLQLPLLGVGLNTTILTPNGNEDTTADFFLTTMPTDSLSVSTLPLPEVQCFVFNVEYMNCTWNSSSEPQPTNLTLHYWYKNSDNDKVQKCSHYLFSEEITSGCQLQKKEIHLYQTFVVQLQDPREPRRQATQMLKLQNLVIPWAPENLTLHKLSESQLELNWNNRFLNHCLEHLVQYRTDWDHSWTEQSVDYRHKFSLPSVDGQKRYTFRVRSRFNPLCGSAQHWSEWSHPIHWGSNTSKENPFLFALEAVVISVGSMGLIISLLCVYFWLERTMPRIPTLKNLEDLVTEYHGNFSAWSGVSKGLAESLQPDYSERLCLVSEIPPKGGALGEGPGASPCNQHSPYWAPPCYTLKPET

B1: ORK2-010 (foldikine-2, two 7 aa InterLinkers GGGSGGG) (ligand)
chain: LRPRDLISNINVIVLELKGSETTFMCEYADETATIVEFLNRWITFCQSIISTLTGGGSGGGTKKTQLQLEHLLLDLQMILNGINNYKNPKLTRMLTFKFYMPKKATELKHLQCLEEELKPLEEVLNLAQSKNFHLRPRDLISNINVIVLELKGSETTFMCEYADETATIVEFLNRWITFCQSIISTLTGGGSGGGTKKTQLQLEHLLLDLQMILNGINNYKNPKLTRMLTFKFYMPKKATELKHLQCLEEELKPLEEVLNLAQS
- EC-50 (IL-2 reporter HEK blue cells, SEAP, absorbance 630 nm) [1]: 190 pM

B2: ORK22-014 (Foldikine-22, two polyGly InterLinkers) (ligand)
chain: APISESGEIKAIGELDLLFMSLRNACIGGGGGGGGGGAPISSHCRLDKSNFQQPYITNRTFMLAKEASLADNNTDVRLIGEKLFHGVSMSERCYLMKQVLNFTLEEVLFPQSDRFQPYMQEVVPFLARLSNRLSTCHIEGDDLHIQRNVQKLKDTVKKLGESGEIKAIGELDLLFMSLRNACIGGGGGGGGGGAPISSHCRLDKSNFQQPYITNRTFMLAKEASLADNNTDVRLIGEKLFHGVSMSERCYLMKQVLNFTLEEVLFPQSDRFQPYMQEVVPFLARLSNRLSTCHIEGDDLHIQRNVQKLKDTVKKLG
- EC-50 (IL-22 reporter HEK blue cells, SEAP, absorbance 630 nm) [2]: 2420 pM

B3: MutSC1_controlcenter_21 (ligand)
chain: KSKAVEQVKNAFNKLQEKGIYKAMSEFDIFINYIEAYMTMNFGGLDYLPNMLRDLRDAFSRVKTFFQMKDQLDNLLLKESLLEDFKGYLGCQALSEMIQFYLEEVMPQAENQDPDIKAHVNSLGENLKTLRLRLRRCHRFLPCENKSKAVEQVKNAFNKLQEKGIYKAMSEFDIFINYIEAYMTMNFGGLDYLPNMLRDLRDAFSRVKTFFQMKDQLDNLLLKESLLEDFKGYLGCQALSEMIQFYLEEVMPQAENQDPDIKAHVNSLGENLKTLRLRLRRCHFLPCEN
- activation of HEK blue cells, apparent KD fit (drop against MutSC1) [3]: ~2.5 fold

B4: ORKIFNg-002 (Foldikine-IFNG, single chain dimeric IFN gamma) (ligand)
chain: GSQDPYVKEAENLKKYFNAGHSDVADNGTLFLGILKNWKEESDRKIMQSQIVSFYFKLFKNFKDDQSIQKSVETIKEDMNVKFFNSNKKKRDDFEKLTNYSVTDLNVQRKAIHELIQVMASKPHPGQLWAYVKEAENLKKYFNAGHSDVADNGTLFLGILKNWKEESDRKIMQSQIVSFYFKLFKNFKDDQSIQKSVETIKEDMNVKFFNSNKKKRDDFEKLTNYSVTDLNVQRKAIHELIQVMAELSPAA
- EC50 (HEK Dual cells responding to IFNγ) [4]: 0.0328 nM

B5: ORK2-011 (foldikine-2, two 8 aa InterLinkers GGGSGGGG) (ligand)
chain: LRPRDLISNINVIVLELKGSETTFMCEYADETATIVEFLNRWITFCQSIISTLTGGGSGGGGTKKTQLQLEHLLLDLQMILNGINNYKNPKLTRMLTFKFYMPKKATELKHLQCLEEELKPLEEVLNLAQSKNFHLRPRDLISNINVIVLELKGSETTFMCEYADETATIVEFLNRWITFCQSIISTLTGGGSGGGGTKKTQLQLEHLLLDLQMILNGINNYKNPKLTRMLTFKFYMPKKATELKHLQCLEEELKPLEEVLNLAQS
- EC-50 (IL-2 reporter HEK blue cells, SEAP, absorbance 630 nm) [1]: 171 pM

B6: IL22_WT (IL-22 WT expressed in CHO cells) (ligand)
chain: APISSHCRLDKSNFQQPYITNRTFMLAKEASLADNNTDVRLIGEKLFHGVSMSERCYLMKQVLNFTLEEVLFPQSDRFQPYMQEVVPFLARLSNRLSTCHIEGDDLHIQRNVQKLKDTVKKLGESGEIKAIGELDLLFMSLRNACI
- EC-50 (IL-22 reporter HEK blue cells, SEAP, absorbance 630 nm) [2]: 97.6 pM

B7: ORK22-012 (Foldikine-22, two InterLinkers GGPPPPPPGG) (ligand)
chain: APISESGEIKAIGELDLLFMSLRNACIGGPPPPPPGGAPISSHCRLDKSNFQQPYITNRTFMLAKEASLADNNTDVRLIGEKLFHGVSMSERCYLMKQVLNFTLEEVLFPQSDRFQPYMQEVVPFLARLSNRLSTCHIEGDDLHIQRNVQKLKDTVKKLGESGEIKAIGELDLLFMSLRNACIGGPPPPPPGGAPISSHCRLDKSNFQQPYITNRTFMLAKEASLADNNTDVRLIGEKLFHGVSMSERCYLMKQVLNFTLEEVLFPQSDRFQPYMQEVVPFLARLSNRLSTCHIEGDDLHIQRNVQKLKDTVKKLG
- EC-50 (IL-22 reporter HEK blue cells, SEAP, absorbance 630 nm) [2]: 43.3 pM
